Measurements: US20090311283A1

Columns and labels:
[1] = biological target: T1, HLA-DR5w11 (DRB1*1101) (human); assay: inhibition of 125I probe peptide binding to purified HLA-DR, gel filtration; settings: remark: other sources report otherwise
T1 chain 1: not shown
T1 chain 2: not shown

[2] = biological target: T2, HLA-DR1 (DRB1*0101) (human); assay: as above; settings: remark: other sources report otherwise
T2 chain 1: not shown
T2 chain 2: not shown

[3] = biological target: HLA-A*6802 (Human); settings: remark: other sources report otherwise
[4] = biological target: HLA-A*0203 (Human); settings: remark: other sources report otherwise
[5] = biological target: HLA-A*0201 (Human); settings: remark: other sources report otherwise
[6] = biological target: HLA-A*03 (human); assay: competitive inhibition of 125I-labelled probe peptide binding to purified HLA, gel filtration; settings: remark: other sources report otherwise
[7] = biological target: HLA-B*5401 (human); assay: competition vs 125I probe peptide, purified HLA, gel filtration; settings: remark: other sources report otherwise
[8] = biological target: HLA-B*3501 (human); assay: as above; settings: remark: other sources report otherwise
[9] = biological target: HLA-A*6802 (Human); settings: remark: other sources report otherwise; remark: listed apart in the source
[10] = biological target: HLA-B*0702 (human); assay: competition vs 125I probe peptide, purified HLA, gel filtration; settings: remark: other sources report otherwise
[11] = biological target: T3, HLA-DRB4*0101 (human)
T3 chain 1: not shown
T3 chain 2: not shown

[12] = biological target: T4, HLA-DRB1*0101 (human)
T4 chain 1: not shown
T4 chain 2: not shown

[13] = biological target: T1, HLA-DR5w11 (DRB1*1101) (human); assay: competition with 125I probe peptide for purified HLA-DR, gel filtration
[14] = biological target: T5, HLA-DR7 (DRB1*0701) (human); assay: as above
T5 chain 1: not shown
T5 chain 2: not shown

[15] = biological target: HLA-DR5w12 (DRB1*1201) (human); assay: as above
[16] = biological target: T2, HLA-DR1 (DRB1*0101) (human); assay: as above
[17] = biological target: HLA-DR9 (DRB1*0901) (human); assay: as above
[18] = biological target: T6, HLA-DR8w2 (DRB1*0802) (human); assay: as above
T6 chain 1: not shown
T6 chain 2: not shown

[19] = biological target: T7, HLA-DRw53 (DRB4*0101) (human); assay: as above
T7 chain 1: not shown
T7 chain 2: not shown

[20] = biological target: T8, HLA-DR6w19 (DRB1*1302) (human); assay: as above
T8 chain 1: not shown
T8 chain 2: not shown

[21] = biological target: T9, HLA-DR4w4 (DRB1*0401) (human); assay: as above
T9 chain 1: not shown
T9 chain 2: not shown

[22] = biological target: HLA-A*6801 (human); assay: inhibition of 125I-labelled probe peptide binding to purified HLA, gel filtration; settings: remark: other sources report otherwise

B1: HBV POL peptide … (peptide)
peptide: CSVVRRAFPHCLAFS
modifications: not checked
- binding affinity ratio (relative to standard peptide) [1]: 0.0008
- binding affinity ratio (relative to standard peptide) [2]: 0.1

B2: HBV POL 656 … (peptide)
peptide: FTFSPTYKA
modifications: not checked
- binding affinity ratio (IC50 of standard peptide / IC50 of test peptide) [3]: 7.3
- binding affinity ratio (IC50 of standard peptide / IC50 of test peptide) [4]: 0.0031
- binding affinity ratio (IC50 of standard peptide / IC50 of test peptide) [5]: 0.0056

B3: HBV POL 771 peptide 1.0205 (…) (peptide)
peptide: ILRGTSFVY
modifications: not checked
- IC50 [6]: 250 nM

B4: Peptide 16.0006 (HBV ENV 25, …) (peptide)
peptide: FPDHQLDPA
modifications: not checked
- IC50 [7]: 12 nM
- IC50 [8]: 8 µM

B5: peptide 1069.14 (peptide)
peptide: ILSTLPETTV
modifications: not checked
- IC50 [9]: 5.97 µM

B6: Peptide 19.0016 (HBV POL 769, VPSALNPA) (peptide)
peptide: VPSALNPA
modifications: not checked
- IC50 [7]: 10 nM
- IC50 [10]: 3000 nM

B7: … (HBV POL 38, 15-mer) (peptide)
peptide: AEDLNLGNLNVSIPW
modifications: not checked
- binding affinity ratio (IC50 of standard peptide / IC50 of test peptide) [11]: 0.017
- binding affinity ratio (IC50 of standard peptide / IC50 of test peptide) [12]: 0.0001

B8: HBV ENV 342 peptide … (peptide)
peptide: FVQWFVGLSPTVWLS
modifications: not checked
- relative binding (IC50 of standard peptide / IC50 of test peptide) [13]: 0.0072
- relative binding (IC50 of standard peptide / IC50 of test peptide) [14]: 0.069
- relative binding (IC50 of standard peptide / IC50 of test peptide) [15]: 0.0021
- relative binding (IC50 of standard peptide / IC50 of test peptide) [16]: 0.47
- relative binding (IC50 of standard peptide / IC50 of test peptide) [17]: 0.041
- relative binding (IC50 of standard peptide / IC50 of test peptide) [18]: 0.018
- relative binding (IC50 of standard peptide / IC50 of test peptide) [19]: 0.0044
- relative binding (IC50 of standard peptide / IC50 of test peptide) [20]: 0.019
- relative binding (IC50 of standard peptide / IC50 of test peptide) [21]: 0.013

B9: HBV POL 50 peptide 26.0024 (VSIPWTHK) (peptide)
peptide: VSIPWTHK
modifications: not checked
- IC50 [22]: 20 µM
